# Experimental data from patent publication US11332512B2, “Peptides and combination of peptides for use in immunotherapy against various tumors” (Immatics Biotechnologies GmbH, priority 2015, dated 2022).
# Molecular target: HLA-A*02:01 (Homo sapiens, UniProt P04439, D140Y/D185E/D98H/E176V/E277Q/G131W/G231S/I119V/I121R/I166T/I218V/L300P/L318F/N151K/N90K/P208A/P217A/Q86G/Q94H/R138H/R169H/T345S)
# Test: MHC binding assay: UV-ligand exchange with beta2m ELISA (peptide exchange yield)
# Details: binding to HLA-A*02:01, β2m ELISA
# Description: Candidate peptides for T cell based therapies according to the present invention were further tested for their MHC binding capacity (affinity). The individual peptide-MHC complexes were produced by UV-ligand exchange, where a UV-sensitive peptide is cleaved upon UV-irradiation, and exchanged with the peptide of interest as analyzed. Only peptide candidates that can effectively bind and stabilize the peptide-receptive MHC molecules prevent dissociation of the MHC complexes. To determine the yield of the exchange reaction, an ELISA was performed based on the detection of the light chain (β2m) of stabilized MHC complexes. The assay was performed as generally described in Rodenko et al. (Rodenko et al., 2006).
# 96 well MAXISorp plates (NUNC) were coated over night with 2 ug/ml streptavidin in PBS at room temperature, washed 4× and blocked for 1 h at 37° C. in 2% BSA containing blocking buffer. Refolded HLA-A*02:01/MLA-001 monomers served as standards, covering the range of 15-500 ng/ml. Peptide-MHC monomers of the UV-exchange reaction were diluted 100 fold in blocking buffer. Samples were incubated for 1 h at 37° C., washed four times, incubated with 2 ug/ml HRP conjugated anti-β2m for 1 h at 37° C., washed again and detected with TMB solution that is stopped with […]. Absorption was measured at 450 nm. Candidate peptides that show a high exchange yield (preferably higher than 50%, most preferred higher than 75%) are generally preferred for a generation and production of antibodies or fragments thereof, and/or T cell receptors or fragments thereof, as they show sufficient avidity to the MHC molecules and prevent dissociation of the MHC complexes.
row,"Peptide exchange (MHC class I binding score, peptide exchange yield)",Substance
1,+++ (= ≥50% = +++),193 (ALFHMNILL; listed as Homo sapiens) [compound 193]
2,+++ (= ≥50% = +++),230 (KLLNMIFSI; listed as Homo sapiens) [compound 230]
3,+++ (= ≥50% = +++),191 (AAIEIFEKV; listed as Homo sapiens) [compound 191]
4,+++ (= ≥50% = +++),58 (HLLGEGAFAQV; listed as Homo sapiens) [compound 58]
5,+++ (= ≥50% = +++),88 (LLLPLELSLA; listed as Homo sapiens) [compound 88]
6,+++ (= ≥50% = +++),54 (YLVPGLVAA; listed as Homo sapiens) [compound 54]
7,+++ (= ≥50% = +++),183 (ALSYILPYL; listed as Homo sapiens) [compound 183]
8,+++ (= ≥50% = +++),143 (MLWESIMRV; listed as Homo sapiens) [compound 143]
9,+++ (= ≥50% = +++),270 (TLLTFFHEL; listed as Homo sapiens) [compound 270]
10,+++ (= ≥50% = +++),285 (MLLDTVQKV; listed as Homo sapiens) [compound 285]
11,+++ (= ≥50% = +++),67 (FLIENLLAA; listed as Homo sapiens) [compound 67]
12,+++ (= ≥50% = +++),131 (SLYPHFTLL; listed as Homo sapiens) [compound 131]
13,+++ (= ≥50% = +++),94 (YLDEVAFML; listed as Homo sapiens) [compound 94]
14,+++ (= ≥50% = +++),286 (FLTEMVHFI; listed as Homo sapiens) [compound 286]
15,+++ (= ≥50% = +++),12 (RLLDPKTIFL; listed as Homo sapiens) [compound 12]
16,+++ (= ≥50% = +++),41 (IVTEIISEI; listed as Homo sapiens) [compound 41]
17,+++ (= ≥50% = +++),62 (SLVENIHVL; listed as Homo sapiens) [compound 62]
18,+++ (= ≥50% = +++),228 (SLLELDGINLRL; listed as Homo sapiens) [compound 228]

# Continued, substance first:
row,Substance,"Peptide exchange (MHC class I binding score, peptide exchange yield)"
1,144 (FLISQTPLL; listed as Homo sapiens) [compound 144],+++ (= ≥50% = +++)
2,130 (QLYGSAITL; listed as Homo sapiens) [compound 130],+++ (= ≥50% = +++)
3,244 (NVAEIVIHI; listed as Homo sapiens) [compound 244],+++ (= ≥50% = +++)
4,225 (FLPQPVPLSV; listed as Homo sapiens) [compound 225],+++ (= ≥50% = +++)
5,180 (RLYEEEIRI; listed as Homo sapiens) [compound 180],+++ (= ≥50% = +++)
6,251 (LLWGNLPEI; listed as Homo sapiens) [compound 251],+++ (= ≥50% = +++)
7,55 (HLFDKIIKI; listed as Homo sapiens) [compound 55],+++ (= ≥50% = +++)
8,218 (SLTGANITV; listed as Homo sapiens) [compound 218],+++ (= ≥50% = +++)
9,22 (LMYPYIYHV; listed as Homo sapiens) [compound 22],+++ (= ≥50% = +++)
10,214 (ALFETLIQL; listed as Homo sapiens) [compound 214],+++ (= ≥50% = +++)
11,271 (VLIEYNFSI; listed as Homo sapiens) [compound 271],+++ (= ≥50% = +++)
12,277 (KLQEELNKV; listed as Homo sapiens) [compound 277],+++ (= ≥50% = +++)
13,150 (VLLDMVHSL; listed as Homo sapiens) [compound 150],+++ (= ≥50% = +++)
14,36 (TVLQELINV; listed as Homo sapiens) [compound 36],+++ (= ≥50% = +++)
15,44 (AVFNLVHVV; listed as Homo sapiens) [compound 44],+++ (= ≥50% = +++)
16,23 (ALLSPLSLA; listed as Homo sapiens) [compound 23],+++ (= ≥50% = +++)

row,Substance,"Peptide exchange (MHC class I binding score, peptide exchange yield)"
1,181 (LLWAPTAQA; listed as Homo sapiens) [compound 181],+++ (= ≥50% = +++)
2,99 (TLFGIQLTEA; listed as Homo sapiens) [compound 99],+++ (= ≥50% = +++)
3,173 (RLIDIYKNV; listed as Homo sapiens) [compound 173],+++ (= ≥50% = +++)
4,280 (HLWGHALFL; listed as Homo sapiens) [compound 280],+++ (= ≥50% = +++)
5,223 (ALHPVQFYL; listed as Homo sapiens) [compound 223],+++ (= ≥50% = +++)
6,3 (RVIDDSLVVGV; listed as Homo sapiens) [compound 3],+++ (= ≥50% = +++)
7,111 (AQLEGKLVSI; listed as Homo sapiens) [compound 111],+++ (= ≥50% = +++)
8,122 (SIIDTELKV; listed as Homo sapiens) [compound 122],+++ (= ≥50% = +++)
9,68 (QLMNLIRSV; listed as Homo sapiens) [compound 68],+++ (= ≥50% = +++)
10,165 (SLLDYEVSI; listed as Homo sapiens) [compound 165],+++ (= ≥50% = +++)
11,61 (ALYPKEITL; listed as Homo sapiens) [compound 61],+++ (= ≥50% = +++)
12,226 (SLAGNLQEL; listed as Homo sapiens) [compound 226],+++ (= ≥50% = +++)
13,136 (LLWDAPAKC; listed as Homo sapiens) [compound 136],+++ (= ≥50% = +++)
14,220 (ALSELERVL; listed as Homo sapiens) [compound 220],+++ (= ≥50% = +++)
15,159 (QLGPVPVTI; listed as Homo sapiens) [compound 159],+++ (= ≥50% = +++)
16,179 (TLGEIIKGV; listed as Homo sapiens) [compound 179],+++ (= ≥50% = +++)
